# Test results taken from patent publication US20200317768A1 (published 2020).
# Substitutions are numbered along the chain they refer to.
# T1: human FcγRIIb extracellular domain with C-terminal His-tag (human, UniProt P31994 43-217)
# T1 construct: also called human FcgRIIb
# T1 sequence: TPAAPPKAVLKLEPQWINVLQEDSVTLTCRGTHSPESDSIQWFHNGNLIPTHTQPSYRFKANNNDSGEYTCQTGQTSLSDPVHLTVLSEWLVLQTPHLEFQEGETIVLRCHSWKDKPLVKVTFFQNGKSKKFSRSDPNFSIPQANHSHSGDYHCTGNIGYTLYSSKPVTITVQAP
# T2: cynomolgus monkey FcγRIIa1 extracellular domain with C-terminal His-tag (cynomolgus monkey)
# T2 construct: also called cyno FcgRIIa1; cynoFcγRIIa1
# T2 chain: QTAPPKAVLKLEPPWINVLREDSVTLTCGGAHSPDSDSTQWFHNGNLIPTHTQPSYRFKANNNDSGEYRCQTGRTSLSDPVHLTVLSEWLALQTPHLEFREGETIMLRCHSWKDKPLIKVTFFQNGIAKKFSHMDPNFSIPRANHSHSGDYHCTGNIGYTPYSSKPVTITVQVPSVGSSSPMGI
# T3: cynomolgus monkey FcγRIIIaS extracellular domain with C-terminal His-tag (cynomolgus monkey, UniProt Q8SPW2 21-206 at identity 1.00))
# T3 construct: also called cyno FcgRIIIaS; cynoFcγRIIIaS
# T3 chain: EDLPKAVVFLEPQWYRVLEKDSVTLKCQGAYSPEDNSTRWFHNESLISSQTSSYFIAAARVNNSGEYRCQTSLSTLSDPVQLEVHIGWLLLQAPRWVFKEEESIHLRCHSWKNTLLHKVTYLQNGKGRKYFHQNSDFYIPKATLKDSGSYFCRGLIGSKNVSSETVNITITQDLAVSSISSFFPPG
# T4: cynomolgus monkey FcγRIIa2 extracellular domain with C-terminal His-tag (cynomolgus monkey)
# T4 construct: also called cyno FcgRIIa2; cynoFcγRIIa2
# T4 chain: T2 chain with P95T, T121A, I127K, A128S, K130N, D135N, R142Q
# T5: human FcγRIIaR extracellular domain with C-terminal His-tag (human, UniProt P12318 34-217)
# T5 construct: also called human FcgRIIaR; FcγRIIa (type R)
# T5 chain: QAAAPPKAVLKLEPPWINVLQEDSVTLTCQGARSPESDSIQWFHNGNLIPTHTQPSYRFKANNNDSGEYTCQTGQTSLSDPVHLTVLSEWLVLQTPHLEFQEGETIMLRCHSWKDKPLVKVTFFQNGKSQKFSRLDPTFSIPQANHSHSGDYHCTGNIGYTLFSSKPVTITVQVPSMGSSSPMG
# T6: cynomolgus monkey FcγRIIa3 extracellular domain with C-terminal His-tag (cynomolgus monkey)
# T6 construct: also called cyno FcgRIIa3; cynoFcγRIIa3
# T6 chain: T2 chain with P95T, T121A, A128S, H133P, D135N
# T7: cynomolgus monkey FcγRIIb extracellular domain with C-terminal His-tag (cynomolgus monkey)
# T7 construct: also called cyno FcgRIIb; cynoFcγRIIb
# T7 chain: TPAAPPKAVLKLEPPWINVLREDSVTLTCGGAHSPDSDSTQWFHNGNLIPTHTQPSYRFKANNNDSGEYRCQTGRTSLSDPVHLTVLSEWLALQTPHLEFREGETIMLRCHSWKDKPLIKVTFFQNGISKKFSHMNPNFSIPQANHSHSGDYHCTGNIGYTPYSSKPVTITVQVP
# B1: M103205H795-MY528/M103202L889-SK1 (antibody, human IgG1, kappa)
# heavy: QVTLKESGPVLVKPTETLTLTCTVSGIDLSHDDISWVRQAPGKGLEWVGIISYAGSTYYASWAKGRLTISKDTSKNQVVLTMTNMDPVDTATYYCARGVPAYSHGGDLWGQGTLVTVSSASTKGPSVFPLAPSSKSTSGGTAALGCLVKDYFPEPVTVSWNSGALTSGVHTFPAVLQSSGLYSLSSVVTVPSSSLGTQTYICNVNHKPSNTKVDKKVEPKSCDKTHTCPPCPAPEWLTGPSVFLFPPKPKDTLMISRTPEVTCVVVDVSDEDPEVKFNWYVDGVEVHNAKTKPREEQYNSTYRVVSVLTVLHQDWLNGKEYKCKVSNKALPKPIEKTISKAKGQPREPQVYTLPPSREEMTKNQVSLTCLVKGFYPSDIAVEWESNGQPENNYKTTPPVLDSDGSFFLYSKLTVDKSRWQQGNVFSCSVMHEALHNHYTQKSLSLSP
# light: DIVMTQSPATLSLSPGERATLSCTSSQSVYHANWLSWFQQKPGQPPKLLIYWASTLAYGVPSRFSGSGSGTDFTLTISSLQPEDAATYYCAGGYGGGRYAFGQGTKVEIKRTVAAPSVFIFPPSDEQLKSGTASVVCLLNNFYPREAKVQWKVDNALQSGNSQESVTEQDSKDSTYSLSSTLTLSKADYEKHKVYACEVTHQGLSSPVTKSFNRGEC
# notes: Substitutions introduced into M103205H795-SG1, expressed with M103202L889-SK1 as light chain; EU numbering
# B2: M103205H795-MY532/M103202L889-SK1 (antibody, human IgG1, kappa)
# heavy: B1 heavy with S241V
# light: B1 light
# notes: as for B1
# B3: M103205H795-MY531/M103202L889-SK1 (antibody, human IgG1, kappa)
# heavy: B1 heavy with K328T
# light: B1 light
# notes: as for B1
# B4: M103205H795-MY530/M103202L889-SK1 (antibody, human IgG1, kappa)
# heavy: B1 heavy with W236L, K328T
# light: B1 light
# notes: as for B1
# B5: M103205H795-MY529/M103202L889-SK1 (antibody, human IgG1, kappa)
# heavy: B1 heavy with Q297L
# light: B1 light
# notes: as for B1
# Biological target: T1, human FcγRIIb extracellular domain with …
# Experiment: SPR (BIACORE); KD of SG1 / KD of variant;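 also: relative to parent M103205H795-SG1 carrying the SG1 human heavy chain constant region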
row,KD fold (SG1 = 1),Binder
1,2.1 fold,B1
2,5.5 fold,B2
3,3.2 fold,B3
4,2.5 fold,B4
5,3.3 fold,B5

# Biological target: T2, cynomolgus monkey FcγRIIa1 …
# Experiment: SPR (BIACORE); KD of SG1 / KD of variant;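 also: relative to parent M103205H795-SG1 carrying the SG1 human heavy chain constant region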
row,KD fold (SG1 = 1),Binder
1,2.3 fold,B1
2,4.2 fold,B2
3,2.9 fold,B3
4,2.3 fold,B4
5,3.2 fold,B5

# Biological target: T3, cynomolgus monkey FcγRIIIaS …
# Experiment: SPR (BIACORE); KD of SG1 / KD of variant;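 also: relative to parent M103205H795-SG1 carrying the SG1 human heavy chain constant region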
row,KD fold (SG1 = 1),Binder
1,0.15 fold,B1
2,0.42 fold,B2
3,0.36 fold,B3
4,0.42 fold,B4
5,0.16 fold,B5

# Biological target: T4, cynomolgus monkey FcγRIIa2 …
# Experiment: SPR (BIACORE); KD of SG1 / KD of variant;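 also: relative to parent M103205H795-SG1 carrying the SG1 human heavy chain constant region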
row,KD fold (SG1 = 1),Binder
1,3.4 fold,B1
2,8.5 fold,B2
3,3.5 fold,B3
4,4.6 fold,B4
5,3.6 fold,B5

# Biological target: T8, human FcγRIIIaV extracellular domain with C-terminal His-tag (human, UniProt P08637 17-208)
# T8 construct: also called human FcgRIIIaV
# Experiment: SPR (BIACORE); KD of SG1 / KD of variant
# T8 sequence (P08637 17-208 F176V): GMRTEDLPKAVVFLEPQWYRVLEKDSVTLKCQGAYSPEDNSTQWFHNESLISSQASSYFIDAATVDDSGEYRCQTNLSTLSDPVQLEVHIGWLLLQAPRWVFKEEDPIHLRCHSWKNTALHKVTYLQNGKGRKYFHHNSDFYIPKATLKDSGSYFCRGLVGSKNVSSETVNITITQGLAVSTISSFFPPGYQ
row,KD fold (SG1 = 1),Binder
1,0.19 fold,B1
2,0.43 fold,B2
3,0.25 fold,B3
4,0.23 fold,B4
5,0.2 fold,B5

# Biological target: T5, human FcγRIIaR extracellular domain …
# Experiment: SPR (BIACORE); KD of SG1 / KD of variant
row,KD fold (SG1 = 1),Binder
1,2 fold,B1
2,3.8 fold,B2
3,2.7 fold,B3
4,4.1 fold,B4
5,2.1 fold,B5

# Biological target: T6, cynomolgus monkey FcγRIIa3 …
# Experiment: SPR (BIACORE); KD of SG1 / KD of variant
row,KD fold (SG1 = 1),Binder
1,5.3 fold,B1
2,23 fold,B2
3,7.7 fold,B3
4,6.8 fold,B4
5,5.3 fold,B5

# Biological target: T7, cynomolgus monkey FcγRIIb extracellular …
# Experiment: SPR (BIACORE); KD of SG1 / KD of variant
row,KD fold (SG1 = 1),Binder
1,4.4 fold,B1
2,7.8 fold,B2
3,6.7 fold,B3
4,5.6 fold,B4
5,6 fold,B5
